Here are results for one molecule from PMC10903085 (Neurotherapeutics, 2023).

This assay concerns the target His-Tau-Strep (human 4R2N Tau) (human, UniProt P10636-8 1-441). The assay is described as follows: AlphaScreen or HTRF. (In Alpha technology, singlet oxygen from a donor bead excites a nearby acceptor bead.)

B1: GST-Fyn-SH3-Strep (human Fyn-SH3 domain) (domain or fragment)
chain: not shown
Consider B1, for which the binding result is listed as “binds”.
